Changes are numbered by the printed parent chain. One block for each binder: values may come before it.
Target: T1, plasminogen-depleted human Fibrinogen (EMD/Calbiochem) (human, UniProt P02671 20-629; P02675 31-491; P02679 27-437, limits assumed)
T1 construct: Bought protein, IgG-depleted, coated on ELISA plates; also called FGN
T1 sequence (looked up) 1: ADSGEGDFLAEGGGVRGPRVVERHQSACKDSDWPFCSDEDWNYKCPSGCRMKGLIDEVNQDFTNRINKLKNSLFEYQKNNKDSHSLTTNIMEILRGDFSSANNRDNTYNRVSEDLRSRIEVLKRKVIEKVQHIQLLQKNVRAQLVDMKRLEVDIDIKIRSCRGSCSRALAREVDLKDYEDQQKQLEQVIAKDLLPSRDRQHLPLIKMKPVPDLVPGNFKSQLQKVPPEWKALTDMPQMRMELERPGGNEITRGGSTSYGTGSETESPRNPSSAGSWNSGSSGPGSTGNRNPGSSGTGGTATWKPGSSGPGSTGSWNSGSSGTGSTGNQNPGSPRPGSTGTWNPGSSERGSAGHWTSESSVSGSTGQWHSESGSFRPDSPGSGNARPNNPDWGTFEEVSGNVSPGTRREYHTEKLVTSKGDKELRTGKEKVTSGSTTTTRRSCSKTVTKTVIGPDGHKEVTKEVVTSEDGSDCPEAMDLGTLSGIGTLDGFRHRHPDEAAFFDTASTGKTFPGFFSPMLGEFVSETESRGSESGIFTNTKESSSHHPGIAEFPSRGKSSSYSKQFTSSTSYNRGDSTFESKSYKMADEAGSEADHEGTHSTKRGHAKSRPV
T1 sequence (looked up) 2: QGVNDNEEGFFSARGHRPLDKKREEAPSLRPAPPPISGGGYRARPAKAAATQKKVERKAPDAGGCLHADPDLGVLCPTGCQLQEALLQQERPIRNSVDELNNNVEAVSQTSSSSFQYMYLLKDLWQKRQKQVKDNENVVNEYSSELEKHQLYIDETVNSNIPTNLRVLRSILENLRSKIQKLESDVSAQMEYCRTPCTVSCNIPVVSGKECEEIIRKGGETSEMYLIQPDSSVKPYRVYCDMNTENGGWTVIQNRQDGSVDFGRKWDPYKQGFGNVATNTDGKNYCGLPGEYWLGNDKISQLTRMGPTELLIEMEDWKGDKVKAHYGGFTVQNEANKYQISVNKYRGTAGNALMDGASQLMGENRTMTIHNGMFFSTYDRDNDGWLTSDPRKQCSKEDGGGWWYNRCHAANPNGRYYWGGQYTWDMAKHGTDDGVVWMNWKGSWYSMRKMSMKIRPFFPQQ
T1 sequence (looked up) 3: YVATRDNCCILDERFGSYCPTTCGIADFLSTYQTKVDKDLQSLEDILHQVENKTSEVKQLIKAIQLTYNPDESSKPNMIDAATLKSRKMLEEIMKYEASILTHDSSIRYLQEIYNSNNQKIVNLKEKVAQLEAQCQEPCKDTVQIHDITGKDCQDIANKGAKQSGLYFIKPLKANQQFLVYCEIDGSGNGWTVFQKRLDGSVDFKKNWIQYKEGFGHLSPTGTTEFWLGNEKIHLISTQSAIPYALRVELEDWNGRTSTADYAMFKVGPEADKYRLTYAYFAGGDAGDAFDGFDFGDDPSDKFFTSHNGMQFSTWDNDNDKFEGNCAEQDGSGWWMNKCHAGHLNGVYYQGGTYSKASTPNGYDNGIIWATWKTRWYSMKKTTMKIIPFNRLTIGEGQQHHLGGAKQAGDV
Assay: ELISA on coated human fibrinogen; curve did not reach saturation
Procedure: The humanized antibodies affinity for fibrinogen, fibrin and P2 peptide were assessed by Enzyme-linked immunosorbent assays (ELISA)s (FIGS. 7-16). ELISAs for fibrinogen binding were performed using plasminogen-depleted human Fibrinogen (EMD/Calbiochem). […] IgG1-depleted Fibrinogen (FGN) in 20 mM HEPES/Saline buffer was added to each well of half of a 96-well Nunc Maxisorp™ ELISA plate. The ELISAs for fibrin binding were prepared by adding 50 mL of 20 mM HEPES/Saline buffer containing 14 mM CaCl₂, and 2 units thrombin to each well of the second half of the Nunc Maxisorp™ ELISA plate. 50 mL of 20 mg fibrinogen in 20 mM HEPES/Saline buffer were then added to a total volume of 100 mL. Plates were placed in a 37° C. incubator for 1 hour to allow fibrinogen to clot into fibrin and subsequently placed overnight into a plate dryer at 37° C. overnight. The ELISAs for P2 peptide were prepared by addition of […] of 30 mM P2 peptide in 20 mM HEPES/Saline buffer to each well of a 96-well Nunc Maxisorp™ ELISA plate. Plates were transferred to the plate dryer and dried overnight at 37° C. All ELISAs were preformed using Nunc MaxiSorp 96-well ELISA plates. Blocking was performed using 100 mL 5% BSA in DPBS are incubated at RT for 1 hour. Plates were washed 5× in DPBS containing 0.05% Tween-20 (EL406 was used for the addition of wash buffer only). 50 mL of primary antibodies was diluted in 0.5% BSA in DPBS, and the primary antibodies were added to the plates and incubated for 2 hours at 37° C. Plates were washed 5× in DPBS/Tween. 100 mL secondary antibodies were diluted in 0.5% BSA in DPBS. The secondary antibodies were then added to the plates and incubated for 1 hour at RT. Afterwards, plates were washed 5× in DPBS/Tween. 100 mL of TMB/E substrate solution was added, and the reaction was stopped after 5 minutes with 1N HCl.

EC50: ~2.2 µM
B1: humanized VH5/Vκ2 antibody (antibody, IgG1, V domains shown)
VH: QVQLVQSGAEVKKPGSSVKVSCKASGYTFTSYWIHWVRQAPGQGLEWIGLIDPSDSYTNYNQKFRGRVTITRDTSTSTAYMELSSLRSEDTAVYYCASSDPTGCWGQGTTVTVSS
VL: DIVMTQAAFSNPVTPGTPASISCRSSKSLLHSSGITYLSWYLQKPGQSPQLLIYQMSNLASGVPDRFSSSGSGTDFTLKISRVEAEDVGVYYCAQNLELPLTFGQGTKLEIK
notes: IgG1; also called VH5/VK2; VH5Vk2

EC50: ~3.8 µM
B2: humanized VH4/Vκ2 antibody (antibody, IgG1, V domains shown)
VH: B1 VH with R72V
VL: B1 VL
notes: IgG1; also called VH4/VK2; VH4Vk2

EC50: ~3.6 µM
B3: humanized VH6/Vκ2 antibody (antibody, IgG1, V domains shown)
VH: B1 VH with R65Q
VL: B1 VL
notes: Expressed as IgG1; also called VH6/VK2; VH6Vk2

EC50: ~3.2 µM
B4: humanized VH4/Vκ1 antibody (antibody, IgG1, V domains shown)
VH: B1 VH with R72V
VL: B1 VL with V13I, K79R
notes: Expressed as IgG1; also called VH4/VK1; VH4Vk1

Reference: patent US20240279357A1 (THERINI BIO, published 2024)
